Measured values reported in US20180296696A1 (SANFORD BURNHAM PREBYS MEDICAL DISCOVERY INSTITUTE, published 2018).
Values belong to the molecule of their own block, whether it stands above or below them. No end group written: not given here.

Experiments:
[1] = target: Hyaluronan and proteoglycan link protein 4 (mouse) (UniProt Q80WM4); experiment: peptide-affinity chromatography of PBI mouse brain lysate, elution with free CAQK, LC-MS/MS
Versican core protein [2] = target: T1, Versican core protein (mouse, UniProt Q62059 24-3357, limits assumed); experiment: as above
T1 construct: Native chondroitin sulfate proteoglycan from brain lysate, identified by LC-MS/MS against the Mus musculus UniProt database; also called VCAN
T1 sequence (Q62059 24-3357 limits assumed): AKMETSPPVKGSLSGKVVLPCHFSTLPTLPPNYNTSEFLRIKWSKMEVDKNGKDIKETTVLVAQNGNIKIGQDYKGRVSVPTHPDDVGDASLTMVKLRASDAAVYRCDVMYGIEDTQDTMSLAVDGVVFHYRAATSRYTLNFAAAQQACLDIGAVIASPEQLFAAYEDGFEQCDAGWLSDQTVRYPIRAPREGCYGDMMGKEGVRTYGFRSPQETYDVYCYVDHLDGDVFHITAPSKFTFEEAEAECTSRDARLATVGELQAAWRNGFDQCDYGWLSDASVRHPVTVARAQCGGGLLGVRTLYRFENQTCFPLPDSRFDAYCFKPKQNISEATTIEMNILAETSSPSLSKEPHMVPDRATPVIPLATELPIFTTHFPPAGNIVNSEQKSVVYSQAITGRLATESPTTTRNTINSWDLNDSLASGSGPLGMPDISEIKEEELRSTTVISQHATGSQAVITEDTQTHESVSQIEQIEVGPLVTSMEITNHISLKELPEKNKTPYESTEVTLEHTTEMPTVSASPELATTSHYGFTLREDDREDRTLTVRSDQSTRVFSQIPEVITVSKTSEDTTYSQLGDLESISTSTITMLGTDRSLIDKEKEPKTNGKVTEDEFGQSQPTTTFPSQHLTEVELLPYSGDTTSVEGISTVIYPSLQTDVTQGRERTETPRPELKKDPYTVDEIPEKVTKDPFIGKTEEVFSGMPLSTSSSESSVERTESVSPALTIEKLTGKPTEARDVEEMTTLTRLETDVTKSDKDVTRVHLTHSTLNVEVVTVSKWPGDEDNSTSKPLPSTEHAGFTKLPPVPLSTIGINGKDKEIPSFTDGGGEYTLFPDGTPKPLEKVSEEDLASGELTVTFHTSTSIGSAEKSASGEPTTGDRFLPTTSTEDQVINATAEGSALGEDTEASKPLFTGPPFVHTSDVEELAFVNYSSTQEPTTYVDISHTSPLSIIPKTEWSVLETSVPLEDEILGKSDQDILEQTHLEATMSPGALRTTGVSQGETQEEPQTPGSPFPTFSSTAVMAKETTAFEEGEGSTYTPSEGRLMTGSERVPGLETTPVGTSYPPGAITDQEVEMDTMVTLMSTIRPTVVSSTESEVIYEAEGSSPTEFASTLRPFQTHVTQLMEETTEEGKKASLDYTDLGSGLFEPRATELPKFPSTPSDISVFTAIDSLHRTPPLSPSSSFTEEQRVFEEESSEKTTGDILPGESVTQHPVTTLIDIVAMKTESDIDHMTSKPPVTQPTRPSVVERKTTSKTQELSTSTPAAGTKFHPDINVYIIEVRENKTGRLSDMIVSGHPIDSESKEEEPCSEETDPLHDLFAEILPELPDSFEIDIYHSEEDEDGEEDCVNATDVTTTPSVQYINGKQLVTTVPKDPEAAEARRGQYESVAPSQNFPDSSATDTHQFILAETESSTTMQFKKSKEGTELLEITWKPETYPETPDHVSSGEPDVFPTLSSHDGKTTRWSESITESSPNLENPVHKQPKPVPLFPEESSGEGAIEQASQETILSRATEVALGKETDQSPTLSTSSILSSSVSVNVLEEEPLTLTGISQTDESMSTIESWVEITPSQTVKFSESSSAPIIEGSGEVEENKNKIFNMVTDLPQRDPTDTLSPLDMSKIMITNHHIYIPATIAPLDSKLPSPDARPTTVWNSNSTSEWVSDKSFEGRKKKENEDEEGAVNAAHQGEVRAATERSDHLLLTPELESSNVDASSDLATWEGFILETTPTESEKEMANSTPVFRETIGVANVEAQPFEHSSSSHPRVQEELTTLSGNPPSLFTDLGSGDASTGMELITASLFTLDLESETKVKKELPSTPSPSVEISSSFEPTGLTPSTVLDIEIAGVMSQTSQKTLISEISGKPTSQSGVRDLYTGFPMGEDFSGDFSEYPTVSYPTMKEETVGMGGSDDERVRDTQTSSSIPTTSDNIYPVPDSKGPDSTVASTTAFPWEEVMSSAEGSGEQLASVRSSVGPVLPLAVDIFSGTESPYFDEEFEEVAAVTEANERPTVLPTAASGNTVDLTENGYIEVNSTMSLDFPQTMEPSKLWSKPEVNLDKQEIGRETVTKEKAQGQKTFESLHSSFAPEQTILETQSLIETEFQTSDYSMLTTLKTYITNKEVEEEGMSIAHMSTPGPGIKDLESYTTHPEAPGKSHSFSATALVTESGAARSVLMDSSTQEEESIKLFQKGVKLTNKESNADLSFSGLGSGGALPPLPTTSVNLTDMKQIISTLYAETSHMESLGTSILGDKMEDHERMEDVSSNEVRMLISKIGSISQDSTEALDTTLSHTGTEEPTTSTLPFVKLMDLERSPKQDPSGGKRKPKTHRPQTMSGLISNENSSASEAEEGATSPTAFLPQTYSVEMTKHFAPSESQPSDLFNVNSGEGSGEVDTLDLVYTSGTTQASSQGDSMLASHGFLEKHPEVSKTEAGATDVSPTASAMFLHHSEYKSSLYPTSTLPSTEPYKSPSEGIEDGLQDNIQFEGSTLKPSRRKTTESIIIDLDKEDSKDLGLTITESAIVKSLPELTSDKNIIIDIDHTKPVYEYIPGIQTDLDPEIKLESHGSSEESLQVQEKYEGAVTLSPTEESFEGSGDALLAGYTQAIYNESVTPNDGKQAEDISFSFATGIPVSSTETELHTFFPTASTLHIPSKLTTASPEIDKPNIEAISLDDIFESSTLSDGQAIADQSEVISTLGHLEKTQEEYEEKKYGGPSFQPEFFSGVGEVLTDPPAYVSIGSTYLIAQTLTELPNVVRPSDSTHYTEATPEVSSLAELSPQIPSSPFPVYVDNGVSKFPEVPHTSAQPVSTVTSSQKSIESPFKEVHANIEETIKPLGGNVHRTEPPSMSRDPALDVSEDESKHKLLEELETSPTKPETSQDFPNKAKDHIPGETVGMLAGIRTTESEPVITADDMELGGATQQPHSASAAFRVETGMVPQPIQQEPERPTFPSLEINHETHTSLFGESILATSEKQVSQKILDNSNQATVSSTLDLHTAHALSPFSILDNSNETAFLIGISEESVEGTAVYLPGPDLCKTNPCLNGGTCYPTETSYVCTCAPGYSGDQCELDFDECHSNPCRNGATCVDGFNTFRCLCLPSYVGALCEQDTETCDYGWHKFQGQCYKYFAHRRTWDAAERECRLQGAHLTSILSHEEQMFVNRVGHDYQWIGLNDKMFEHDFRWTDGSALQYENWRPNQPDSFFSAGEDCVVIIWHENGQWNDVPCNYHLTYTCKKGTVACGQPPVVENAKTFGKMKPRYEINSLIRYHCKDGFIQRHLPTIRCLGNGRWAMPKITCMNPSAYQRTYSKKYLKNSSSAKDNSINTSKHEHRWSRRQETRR

Tenascin-R (mouse) [3] = target: Tenascin-R (mouse) (UniProt Q8BYI9); experiment: as above
Sequence of Tenascin-R (mouse) (Q8BYI9 32-1358 limits assumed): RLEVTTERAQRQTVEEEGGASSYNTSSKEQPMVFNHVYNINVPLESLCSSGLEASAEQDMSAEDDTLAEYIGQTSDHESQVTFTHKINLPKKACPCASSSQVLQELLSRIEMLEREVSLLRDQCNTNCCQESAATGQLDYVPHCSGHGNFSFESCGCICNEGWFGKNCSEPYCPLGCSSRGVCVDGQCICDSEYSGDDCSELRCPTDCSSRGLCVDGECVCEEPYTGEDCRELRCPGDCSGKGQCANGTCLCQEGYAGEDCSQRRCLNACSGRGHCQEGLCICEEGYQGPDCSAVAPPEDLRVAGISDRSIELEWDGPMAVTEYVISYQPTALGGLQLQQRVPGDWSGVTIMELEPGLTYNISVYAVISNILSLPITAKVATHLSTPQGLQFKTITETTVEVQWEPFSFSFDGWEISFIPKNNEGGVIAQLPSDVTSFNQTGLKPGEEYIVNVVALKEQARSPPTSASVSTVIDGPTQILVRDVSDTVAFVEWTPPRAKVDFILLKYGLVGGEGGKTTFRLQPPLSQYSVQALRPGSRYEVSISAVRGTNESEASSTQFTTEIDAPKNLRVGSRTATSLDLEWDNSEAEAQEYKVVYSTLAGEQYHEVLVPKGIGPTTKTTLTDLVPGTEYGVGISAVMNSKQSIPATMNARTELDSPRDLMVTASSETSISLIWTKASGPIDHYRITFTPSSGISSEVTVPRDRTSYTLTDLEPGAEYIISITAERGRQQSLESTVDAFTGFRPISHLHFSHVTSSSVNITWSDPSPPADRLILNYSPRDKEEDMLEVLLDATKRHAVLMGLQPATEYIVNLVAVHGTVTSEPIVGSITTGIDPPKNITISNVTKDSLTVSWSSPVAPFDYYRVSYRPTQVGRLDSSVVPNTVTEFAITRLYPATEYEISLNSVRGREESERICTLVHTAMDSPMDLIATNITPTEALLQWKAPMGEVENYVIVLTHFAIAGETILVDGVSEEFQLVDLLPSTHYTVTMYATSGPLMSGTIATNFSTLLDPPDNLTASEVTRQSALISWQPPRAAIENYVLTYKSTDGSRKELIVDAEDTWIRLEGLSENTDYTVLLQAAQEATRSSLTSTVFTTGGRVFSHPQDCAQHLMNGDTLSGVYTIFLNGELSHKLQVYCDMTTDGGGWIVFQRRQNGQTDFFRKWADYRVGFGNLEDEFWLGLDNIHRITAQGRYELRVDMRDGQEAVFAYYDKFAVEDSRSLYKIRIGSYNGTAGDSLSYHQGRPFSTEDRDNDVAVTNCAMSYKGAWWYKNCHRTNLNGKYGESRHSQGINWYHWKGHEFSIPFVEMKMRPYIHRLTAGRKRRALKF

Tenascin-R (mouse) [4] = target: Tenascin-R (mouse) (UniProt Q8BYI9); experiment: peptide-affinity chromatography of PBI mouse brain lysate, LC-MS/MS
Versican core protein [5] = target: T1, Versican core protein; experiment: peptide-affinity chromatography of PBI mouse brain lysate, LC-MS/MS (empty column denotes protein was not detected)
Protocol: (§1) Affinity Chromatography and Proteomics. For identifying CAQK binding proteins, mouse brains with brain injury were collected 6 hrs after injury. Using liquid nitrogen, the brains were crushed and ground into powder using a mortar and pestle. Next, brain tissue was lysed in PBS containing 200 mM n-octyl-beta-D-glucopyranoside and protease inhibitor cocktail (Roche) as described (Teesalu et al., PNAS 16157-16162 (2009)). The cleared lysate was loaded on to CAQK or control peptide (CGGK) coated Sulfolink-agarose beads (Pierce, Waltham, Mass.) and incubated at 4° C. for 3-4 hrs. The column was washed with wash buffer (75 mM octyl-beta-D-glucopyranoside and protease inhibitor cocktail in PBS) followed by washing with 0.5 mM control peptide in wash buffer to remove nonspecifically bound proteins. The bound proteins were eluted with 2 mM free CAQK peptide. The eluted factions were pooled, their protein concentration determined by using bicinchoninic acid (BCA) protein assay (Thermo Fischer) and the samples were digested using the Filter-aided Sample Preparation (FASP) method (Wisniewski et al., Nat Methods 6:359-362 (2009)). […] All mass spectra were analyzed with MaxQuant software version 1.5.0.25. […] Empty column denotes protein was not detected.

[6] = target: T2, Hyaluronan and proteoglycan link protein 4 (mouse, UniProt Q80WM4 31-400); experiment: as above
T2 construct: Native protein from brain lysate, identified by LC-MS/MS; also called Hapln4; HAPLN4
T2 sequence (Q80WM4 31-400 limits assumed): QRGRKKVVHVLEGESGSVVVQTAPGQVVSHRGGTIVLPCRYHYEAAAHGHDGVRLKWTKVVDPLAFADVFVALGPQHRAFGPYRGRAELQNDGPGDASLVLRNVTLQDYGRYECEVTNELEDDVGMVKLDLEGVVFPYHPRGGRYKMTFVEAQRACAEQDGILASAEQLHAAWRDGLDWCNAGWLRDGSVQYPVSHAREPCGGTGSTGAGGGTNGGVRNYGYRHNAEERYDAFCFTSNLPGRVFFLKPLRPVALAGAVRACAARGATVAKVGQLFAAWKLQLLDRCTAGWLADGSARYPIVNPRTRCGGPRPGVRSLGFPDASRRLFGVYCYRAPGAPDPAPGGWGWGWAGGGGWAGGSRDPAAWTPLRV
Protocol: as §1

Sequence of Hyaluronan and proteoglycan link protein 4 (mouse) (Q80WM4 31-400 limits assumed): as above

Log2 LFQ intensity (log2 LFQ intensity) [1]: 19.8 | Log2 LFQ intensity (log2 LFQ intensity) (Versican core protein [2]): 26 | Log2 LFQ intensity (log2 LFQ intensity) (Tenascin-R (mouse) [3]): 26.7
Molecule: CAQK peptide

Log2 LFQ intensity (log2 LFQ intensity) (Tenascin-R (mouse) [4]): 24.1
Molecule: control peptide (CGGK)

binding result (Versican core protein [5]): no binding | binding result [6]: no binding
B1: control peptide (CGGK) (peptide)
peptide: CGGK
modifications: not fully specified (N-terminus, C-terminus)
notes: also called CGGK column
